Assay results published in the supplement of paper PMC10567573.

B1: CCND2 (parent)
chain: YFKCVQKDIQPYMRRMVATWMLEV

Variants of: B1
Experiment: protein stability index of a GFP-peptide fusion (GPS, HEK-293T) (PSI 1-6); higher = more stable
Conditions: c terminus: a fixed tail appended
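Note: lentivirally expressed fusions sorted by FACS into six bins by GFP to DsRed ratio, PSI derived from sequencing read proportions per bin multiplied by bin number.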

| Variant | protein stability index |
| --- | --- |
| YFKCVQKDIQPYMRRMGATWMLEV [V17G] | 3.39 |
| YFKCVQKDIQPYMRRMEATWMLEV [V17E] | 2.49 |
| YFKCVQKDIQPYMRRMLATWMLEV [V17L] | 2.28 |
| YFKCVQKDIQPYMRRMAATWMLEV [V17A] | 1.55 |
| YFKCVQKDIQPYMRRMCATWMLEV [V17C] | 3.2 |
| YFKCVQKDIQPYMRRMFATWMLEV [V17F] | 2.44 |
| YFKCVQKDIQPYMRRMVATDMLEV [W20D] | 1.63 |
| YFKCVQKDIQPYMRRMVATFMLEV [W20F] | 2.34 |
| YFKCVQKDIQPYMRRMVATYMLEV [W20Y] | 3.49 |
| YFKCVQKDIQPYMRRMVATCMLEV [W20C] | 3.44 |
| YFKCVQKDIQPYMRRMVATIMLEV [W20I] | 2.57 |
| YFKCVQKDIQPYMRRMVATQMLEV [W20Q] | 2.61 |
| YFKCVQKDIQPYMRRMVATEMLEV [W20E] | 3.61 |
| YFKCVQKDIQPYMRRMVATRMLEV [W20R] | 2.17 |
| YFKCVQKDIQPYMRRMVATAMLEV [W20A] | 2.36 |
| YFKCVQKDIQPYMRRMVATVMLEV [W20V] | 3.41 |
| YFKCVQKDIQPYMRRMVATNMLEV [W20N] | 1.24 |
| YFKCVQKDIQPYMRRMVATHMLEV [W20H] | 2.88 |
| YFKCVQKDIQPYMRRMVATPMLEV [W20P] | 2.58 |
| YFKCVQKDIQPYMRRMVATLMLEV [W20L] | 4.58 |
| YFKCVQKDIQPYMRRMVATGMLEV [W20G] | 1.95 |
| YFKCVQKDIQPYMRRMVATSMLEV [W20S] | 2 |
| YFKCVQKDIQPYMRRMVATKMLEV [W20K] | 1.84 |
| YFKCVQKDIQPYMRRMVATTMLEV [W20T] | 2.18 |

| Variant | protein stability index |
| --- | --- |
| YFKCVQKDIQPYMRRMVATWCLEV [M21C] | 3.87 |
| YFKCVQKDIQPYMRRMVATWALEV [M21A] | 1.67 |
| YFKCVQKDIQNYMRRMVATWMLEV [P11N] | 2.54 |
| YFKCVQKDIQCYMRRMVATWMLEV [P11C] | 2.36 |
| YFKCVQKDIQEYMRRMVATWMLEV [P11E] | 2.85 |
| YFKCVQKDIQTYMRRMVATWMLEV [P11T] | 2.34 |
| YFKCVQKDIQSYMRRMVATWMLEV [P11S] | 2.5 |
| YFKCVQKDIQHYMRRMVATWMLEV [P11H] | 4.06 |
| YFKCVQKDIQIYMRRMVATWMLEV [P11I] | 2.9 |
| YFKCVQKDIQMYMRRMVATWMLEV [P11M] | 3.69 |
| YFKCVQKDIQDYMRRMVATWMLEV [P11D] | 2.22 |
| YFKCVQKDIQQYMRRMVATWMLEV [P11Q] | 3.25 |
| YFKCVQKDIQFYMRRMVATWMLEV [P11F] | 3.77 |
| YFKCVQKDIQKYMRRMVATWMLEV [P11K] | 2.82 |
| YFKCVQKDIQVYMRRMVATWMLEV [P11V] | 2.82 |
| YFKCVQKDIQWYMRRMVATWMLEV [P11W] | 3.21 |
| YFKCVQKDIQYYMRRMVATWMLEV [P11Y] | 2.74 |
| YFKCVQKDVQPYMRRMVATWMLEV [I9V] | 1.06 |
| YFKCVQKDQQPYMRRMVATWMLEV [I9Q] | 2.61 |
| YFKCVQKDTQPYMRRMVATWMLEV [I9T] | 3.39 |
| YFKCVQKDYQPYMRRMVATWMLEV [I9Y] | 3.57 |
| YFKCVQKDRQPYMRRMVATWMLEV [I9R] | 1.77 |
| YFKCVQKDSQPYMRRMVATWMLEV [I9S] | 3.49 |
| YFKCVQKDIQPLMRRMVATWMLEV [Y12L] | 3.19 |

| Variant | protein stability index |
| --- | --- |
| YFKCVQKDIQPNMRRMVATWMLEV [Y12N] | 2.38 |
| YFKCVQKDIQPSMRRMVATWMLEV [Y12S] | 2.83 |
| YFKCVQKDIQPHMRRMVATWMLEV [Y12H] | 2.54 |
| YFKCVQKDIQPTMRRMVATWMLEV [Y12T] | 2.66 |
| YFKCVQKDIQPDMRRMVATWMLEV [Y12D] | 3.35 |
| YFKCVQKDIQPVMRRMVATWMLEV [Y12V] | 3.11 |
| YFKCVQKDIQPKMRRMVATWMLEV [Y12K] | 3.07 |
| YFKCVQKDIQPRMRRMVATWMLEV [Y12R] | 4.86 |
| YFKCVQKDIQPMMRRMVATWMLEV [Y12M] | 5.01 |
| YFKCVQKDIQPCMRRMVATWMLEV [Y12C] | 2.89 |
| YFKCVQKDIQPPMRRMVATWMLEV [Y12P] | 1.89 |
| YFKCVQKDIQPAMRRMVATWMLEV [Y12A] | 3.33 |
| YFKCVQKDIQPQMRRMVATWMLEV [Y12Q] | 3.19 |
| YFKCVQKDIQPIMRRMVATWMLEV [Y12I] | 2.54 |
| YFKCVQKDIQPWMRRMVATWMLEV [Y12W] | 2.43 |
| YFKCVQKDIQPYMRRLVATWMLEV [M16L] | 3.06 |
| YFKCVQKDIQPYMRRPVATWMLEV [M16P] | 3.25 |
| YFKCVQKDIQPYMRRRVATWMLEV [M16R] | 2.65 |
| YFKCVQKDIQPYMRRTVATWMLEV [M16T] | 3.51 |
| YFKCVQKDIQPYMRRNVATWMLEV [M16N] | 1.51 |
| YFKCVQKDIQPYMRRFVATWMLEV [M16F] | 3.28 |
| YFKCVQKDIQPYMRRYVATWMLEV [M16Y] | 2.41 |
| YFKCVQKDIQPYMRRQVATWMLEV [M16Q] | 2.91 |
| YFKCVQKDIQPYMRRIVATWMLEV [M16I] | 3.33 |

| Variant | protein stability index |
| --- | --- |
| YFKCVQKDIQPYMRRSVATWMLEV [M16S] | 2.58 |
| YFKCVQKDIQPYMRRKVATWMLEV [M16K] | 2.67 |
| YFKCVQKDIQPYMRRVVATWMLEV [M16V] | 2.3 |
| YFKCVQKDIQPYMRRGVATWMLEV [M16G] | 3.04 |
| YFKCVQKDIQPYMRRAVATWMLEV [M16A] | 3.12 |
| YFKCVQKDIQPYMRRDVATWMLEV [M16D] | 2.09 |
| YFKCVQKDIQPYMRREVATWMLEV [M16E] | 2.45 |
| YFKCVQKDIQPYMRRHVATWMLEV [M16H] | 2.35 |
| YFKCVQKDIQPYMRRMVYTWMLEV [A18Y] | 4.28 |
| YFKCVQKDIQPYMRRMVHTWMLEV [A18H] | 2.17 |
| YFKCVQKDIQPYMRRMVRTWMLEV [A18R] | 4.17 |
| YFKCVQKDIQPYMRRMVKTWMLEV [A18K] | 2.69 |
| YFKCVQKDIQPYMRRMVTTWMLEV [A18T] | 3.65 |
| YFKCVQKDIQPYMRRMVDTWMLEV [A18D] | 2.37 |
| YFKCVQKDIQPYMRRMVPTWMLEV [A18P] | 2.96 |
| YFKCVQKDIQPYMRRMVQTWMLEV [A18Q] | 3.45 |
| YFKCVQKDIQPYMRRMVWTWMLEV [A18W] | 2.98 |
| YFKCVQKDIQPYMRRMVCTWMLEV [A18C] | 1.44 |
| YFKCVQKDIQPYMRRMVETWMLEV [A18E] | 3.2 |
| YFKCVQKDIQPYMRRMVNTWMLEV [A18N] | 3.36 |
| YFKCVQKDIQPYMRRMVLTWMLEV [A18L] | 3.85 |
| YFKCVQKDIQPYMRRMVFTWMLEV [A18F] | 3.1 |
